Assay [1] concerns the target CEA (carcinoembryonic antigen) (UniProt P06731). The assay can be described thus: competitive ELISA on CEA-coated plates; competitor murine MAb BW 431/26 at 5 ng/ml, detected with goat anti-mouse Ig-alkaline phosphatase. For orientation: An ELISA detects its analyte on a solid surface through an enzyme-linked reagent.
Assay [2] has the same target. The experiment in a line: specificity/enzyme activity assay, CEA-coated plate, substrate in PBS pH 7.2; supernatant diluted 1:32.
The target in assay [3] is GIT mucin. The experiment in a line: specificity/enzyme activity assay, GIT mucin-coated plate (negative control), substrate in PBS pH 7.2; supernatant diluted 1:128.
The target of assay [4] is CEA (carcinoembryonic antigen) (UniProt P06731). The assay can be described thus: specificity/enzyme activity assay, CEA-coated plate, substrate in PBS pH 7.2; supernatant diluted 1:8.
The target in assay [5] is GIT mucin. The assay can be described thus: specificity/enzyme activity assay, GIT mucin-coated plate (negative control), substrate in PBS pH 7.2; supernatant diluted 1:4.
In assay [6] the target is GIT mucin. The assay can be described thus: specificity/enzyme activity assay, GIT mucin-coated plate (negative control), substrate in PBS pH 7.2; supernatant concentrated.
Assay [7] has as its target CEA (carcinoembryonic antigen) (UniProt P06731). The assay can be described thus: specificity/enzyme activity assay, CEA-coated plate, substrate in PBS pH 7.2; supernatant diluted 1:64.
Assay [8] has the same target. The assay can be described thus: specificity/enzyme activity assay, CEA-coated plate, substrate in 0.2 M sodium acetate buffer + 0.01% BSA pH 5; supernatant diluted 1:2.
For assay [9] the target is unchanged. The assay can be described thus: specificity/enzyme activity assay, CEA-coated plate, substrate in PBS pH 7.2; supernatant diluted 1:4.
The target is the same in assay [10]. The assay can be described thus: specificity/enzyme activity assay, CEA-coated plate, substrate in 0.2 M sodium acetate buffer + 0.01% BSA pH 5; supernatant diluted 1:4.
The target is the same in assay [11]. The experiment in a line: specificity/enzyme activity assay, CEA-coated plate, substrate in 0.2 M sodium acetate buffer + 0.01% BSA pH 5; supernatant diluted 1:64.
Assay [12] deals with GIT mucin. The assay can be described thus: specificity/enzyme activity assay, GIT mucin-coated plate (negative control), substrate in PBS pH 7.2; supernatant diluted 1:64.
Assay [13] addresses CEA (carcinoembryonic antigen) (UniProt P06731). The assay can be described thus: specificity/enzyme activity assay, CEA-coated plate, substrate in PBS pH 7.2; supernatant diluted 1:128.
For assay [14] the target is unchanged. The experiment in a line: specificity/enzyme activity assay, CEA-coated plate, substrate in PBS pH 7.2; supernatant diluted 1:2.
In assay [15] the target is GIT mucin. The assay can be described thus: specificity/enzyme activity assay, GIT mucin-coated plate (negative control), substrate in PBS pH 7.2; supernatant diluted 1:8.
The target of assay [16] is CEA (carcinoembryonic antigen) (UniProt P06731). The experiment in a line: specificity/enzyme activity assay, CEA-coated plate, substrate in 0.2 M sodium acetate buffer + 0.01% BSA pH 5; supernatant diluted 1:32.
The target is the same in assay [17]. The assay can be described thus: specificity/enzyme activity assay, CEA-coated plate, substrate in PBS pH 7.2; supernatant diluted 1:16.
For assay [18] the target is unchanged. The experiment in a line: specificity/enzyme activity assay, CEA-coated plate, substrate in 0.2 M sodium acetate buffer + 0.01% BSA pH 5; supernatant diluted 1:128.
Assay [19] deals with GIT mucin. The experiment in a line: specificity/enzyme activity assay, GIT mucin-coated plate (negative control), substrate in PBS pH 7.2; supernatant diluted 1:16.
In assay [20] the target is CEA (carcinoembryonic antigen) (UniProt P06731). The assay can be described thus: specificity/enzyme activity assay, CEA-coated plate, substrate in 0.2 M sodium acetate buffer + 0.01% BSA pH 5; supernatant diluted 1:8.
Assay [21] concerns the target GIT mucin. The experiment in a line: specificity/enzyme activity assay, GIT mucin-coated plate (negative control), substrate in PBS pH 7.2; supernatant diluted 1:2.
Assay [22] deals with GIT mucin. The assay can be described thus: specificity/enzyme activity assay, GIT mucin-coated plate (negative control), substrate in PBS pH 7.2; supernatant diluted 1:32.
Assay [23] addresses CEA (carcinoembryonic antigen) (UniProt P06731). The experiment in a line: specificity/enzyme activity assay, CEA-coated plate, substrate in PBS pH 7.2; supernatant concentrated.
For assay [24] the target is unchanged. The experiment in a line: specificity/enzyme activity assay, CEA-coated plate, substrate in 0.2 M sodium acetate buffer + 0.01% BSA pH 5; supernatant concentrated.
Assay [25] shares this target. The experiment in a line: specificity/enzyme activity assay, CEA-coated plate, substrate in 0.2 M sodium acetate buffer + 0.01% BSA pH 5; supernatant diluted 1:16.

Chain of UniProt P06731 (P06731 35-685 limits assumed): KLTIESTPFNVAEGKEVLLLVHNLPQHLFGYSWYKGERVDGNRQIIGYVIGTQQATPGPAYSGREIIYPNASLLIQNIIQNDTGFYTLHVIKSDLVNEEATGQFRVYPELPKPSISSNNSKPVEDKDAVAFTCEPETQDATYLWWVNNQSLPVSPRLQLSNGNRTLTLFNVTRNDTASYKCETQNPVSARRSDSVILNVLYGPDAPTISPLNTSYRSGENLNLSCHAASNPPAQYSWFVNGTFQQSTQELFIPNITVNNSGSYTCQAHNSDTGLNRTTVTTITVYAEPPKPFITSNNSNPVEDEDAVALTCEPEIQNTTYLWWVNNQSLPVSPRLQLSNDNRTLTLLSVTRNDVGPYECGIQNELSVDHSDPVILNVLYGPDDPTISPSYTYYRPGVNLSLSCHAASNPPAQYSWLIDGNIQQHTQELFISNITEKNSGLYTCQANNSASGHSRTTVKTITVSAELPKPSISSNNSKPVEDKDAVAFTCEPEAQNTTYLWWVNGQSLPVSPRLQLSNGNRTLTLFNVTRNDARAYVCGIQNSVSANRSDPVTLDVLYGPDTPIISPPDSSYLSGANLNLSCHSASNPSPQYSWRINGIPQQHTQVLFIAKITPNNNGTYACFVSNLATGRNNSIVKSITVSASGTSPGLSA

Take humanized MAb BW 431/26 (antibody): the molar excess of competitor at 50% inhibition in assay [1] is 200 molar excess.
In the case of “431/26 hum VH huβGlc 1H fusion protein (from UniProt P01860 1-98; P01860 99-115; P08236 23-651)”, the fluorescence of 4-methylumbelliferol liberated by plate-bound fusion protein in assay [2] came to 168; with GIT mucin [3] it was 47.5; in assay [4] it was 618; with GIT mucin [5], 73.4; with GIT mucin [6], 116; in assay [7], 99.3. Further, the fluorescence of 4-methylumbelliferol liberated by plate-bound fusion protein in [8] amounted to 7680; in [9] it was 1200; in assay [10], 4660; in assay [11], 425; with GIT mucin [12], 48.2; in assay [13], 57.9. In addition, the fluorescence of 4-methylumbelliferol liberated by plate-bound fusion protein in assay [14] came out at 2140; with GIT mucin [15], 60.7; in [16] it was 853; in assay [17], 332; in assay [18], 192; in the assay with GIT mucin [19], 53.7. Besides, the fluorescence of 4-methylumbelliferol liberated by plate-bound fusion protein amounted to 2930 in assay [20]; 93.4 in the assay with GIT mucin [21]; 40.4 with GIT mucin [22]; 2720 in assay [23]; 9120 in assay [24]; 1660 in assay [25]. The substance also had a molar excess of competitor at 50% inhibition in assay [1] of 200 molar excess.
